Laboratory results reported in patent US20250114450A1 (AKESO BIOPHARMA, published 2025).

Target: T1, FcγRI (UniProt P12314 16-288, limits assumed)
T1 construct: construct not described; also called CD64; FcγRIa
Experiment: BLI (Fortebio Octet), FcγRI immobilized on HIS1K sensor, antibody 3.12-50 nM, 1:1 fit
Description: 1 μg/mL FcγRIa was immobilized on the HIS1K sensor for 50 s. The sensor was equilibrated in a buffer for 60 s, and the binding of the immobilized CD64 on the sensor to the antibodies at concentrations of 3.12-50 nM (two-fold dilution) was determined for 120 s. The antibody was dissociated in the buffer for 120 s. The sensor was refreshed 4 times in 10 mM glycine pH 1.5, each for 5 s. The detection temperature was 30° C. and the frequency was 0.3 Hz. The data were analyzed by 1:1 model fitting to obtain affinity constants.

T1 sequence (P12314 16-288 limits assumed): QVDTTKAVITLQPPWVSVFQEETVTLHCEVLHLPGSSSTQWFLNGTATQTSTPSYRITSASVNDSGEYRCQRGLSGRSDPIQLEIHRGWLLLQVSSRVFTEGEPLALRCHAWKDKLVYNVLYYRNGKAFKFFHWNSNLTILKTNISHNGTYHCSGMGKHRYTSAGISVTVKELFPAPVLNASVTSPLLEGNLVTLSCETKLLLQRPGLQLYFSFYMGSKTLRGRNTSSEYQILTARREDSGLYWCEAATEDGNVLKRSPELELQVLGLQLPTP

B1: Bevacizumab (antibody, human IgG1, kappa)
heavy: not shown
light: not shown
notes: also called Avastin; anti-VEGFA monoclonal antibody
In the case of B1, the Kd is reported as 3.68 nM.
